PMC9468648, “Profiling of transcriptional regulators associated with starch biosynthesis in sorghum (Sorghum bicolor L.)”

Assays:
Test in all cases: EMSA; Chemiluminescent EMSA Kit (Beyotime) per manufacturer's instructions; buffer, salt, pH and temperature not stated
Settings in all cases: protein: recombinant; tags: His (pET32a fusion); chain copies: 2; label: 5' biotin; blunt
[1] = biological target: T1, SORBI_3009G086800 (NAC TF) (UniProt C5YV73 1-402)
T1 sequence: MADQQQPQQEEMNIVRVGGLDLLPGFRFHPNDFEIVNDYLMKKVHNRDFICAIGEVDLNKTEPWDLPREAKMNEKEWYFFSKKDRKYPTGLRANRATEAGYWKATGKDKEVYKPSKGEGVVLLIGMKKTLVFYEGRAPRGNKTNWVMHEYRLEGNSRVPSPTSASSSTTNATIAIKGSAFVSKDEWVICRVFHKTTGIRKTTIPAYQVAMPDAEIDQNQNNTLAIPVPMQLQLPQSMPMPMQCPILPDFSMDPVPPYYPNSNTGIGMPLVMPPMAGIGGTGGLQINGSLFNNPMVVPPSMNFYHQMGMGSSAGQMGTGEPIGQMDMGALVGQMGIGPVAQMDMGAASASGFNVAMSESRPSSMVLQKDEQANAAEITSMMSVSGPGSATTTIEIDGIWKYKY

[2] = biological target: T2, SORBI_3005G056300 (NAC TF) (UniProt C5Y5Q6 1-283)
T2 sequence: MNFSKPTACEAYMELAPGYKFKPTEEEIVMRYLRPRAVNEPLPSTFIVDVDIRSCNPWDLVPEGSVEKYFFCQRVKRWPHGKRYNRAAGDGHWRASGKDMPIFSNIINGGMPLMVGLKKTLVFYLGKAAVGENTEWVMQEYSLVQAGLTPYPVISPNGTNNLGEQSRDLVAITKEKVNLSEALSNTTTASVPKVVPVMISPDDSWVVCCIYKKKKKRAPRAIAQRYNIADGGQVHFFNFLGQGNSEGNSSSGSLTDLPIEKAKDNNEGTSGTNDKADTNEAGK

[3] = biological target: T3, SORBI_3003G105600 (NAC TF) (UniProt C5XF21 1-400)
T3 sequence: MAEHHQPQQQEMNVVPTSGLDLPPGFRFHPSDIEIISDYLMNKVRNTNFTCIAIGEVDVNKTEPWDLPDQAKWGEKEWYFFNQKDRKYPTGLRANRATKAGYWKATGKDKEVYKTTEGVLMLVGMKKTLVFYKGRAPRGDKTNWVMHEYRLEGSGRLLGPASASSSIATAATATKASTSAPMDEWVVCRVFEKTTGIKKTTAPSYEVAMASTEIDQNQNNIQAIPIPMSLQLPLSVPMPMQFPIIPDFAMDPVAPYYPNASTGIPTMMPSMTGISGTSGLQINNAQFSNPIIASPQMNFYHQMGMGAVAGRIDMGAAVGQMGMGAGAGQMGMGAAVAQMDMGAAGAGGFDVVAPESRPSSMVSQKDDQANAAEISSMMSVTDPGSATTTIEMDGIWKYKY

Measured: binding result

B1: 4x CACGCAA repeat probe (dsDNA)
DNA 1: TCACGCAACACGCAACACGCAACACGCAAG
DNA 2: CTTGCGTGTTGCGTGTTGCGTGTTGCGTGA
binds: all assays above
